Results as given in patent WO2015109212A1 (dated 2015).

T1: mouse IL-2 (Peprotech #212-12) (mouse, UniProt P04351 21-169)
T1 construct: Bought
T1 sequence (looked up): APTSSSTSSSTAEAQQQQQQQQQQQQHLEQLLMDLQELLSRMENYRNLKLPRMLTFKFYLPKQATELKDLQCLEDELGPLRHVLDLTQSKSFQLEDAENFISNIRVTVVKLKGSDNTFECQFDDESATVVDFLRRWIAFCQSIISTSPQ


Assays:
[1] = target: T2, Human IL-2 (Humanzyme, HumanKine IL-2) (human, UniProt P60568 21-153); test: SPR (Biacore T200), antibody captured, human IL-2 injected
T2 construct: Bought; also called hIL-2

[2] = target: T1, mouse IL-2 (Peprotech #212-12); test: told in Example 10; method not named there (SPR in Example 4)

T2 sequence (P60568 21-153 limits assumed): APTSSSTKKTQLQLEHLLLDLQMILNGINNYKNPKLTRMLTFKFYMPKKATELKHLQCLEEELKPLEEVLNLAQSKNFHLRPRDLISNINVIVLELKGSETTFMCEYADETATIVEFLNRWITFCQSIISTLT

binding result [1] | binding result [2] | Binder
binds | binds | 24E7 (antibody, IgG1, V domains shown, also called mAb 24E7) VH: QVQLVQSGAEVKKPGESLKISCKGSGYSFTSYWIGWVRQMPGKGLEWMGIIYPGDSDTRYSPSFQGQVTISADKSISTAYLQWSSLKASDTAMYYCARETLAAVGSNYYYYGMDVWGQGTTVTVSS VL: SYELTQPPSVSVSPGQTARITCSGDALPRKYAYWYQQKSGQAPVLVIYEDSKRPSGIPERFSGSSSGTMATLTISGAQVEDEADYYCYSTDRSGNFWVFGGGTKVTVL
binds | binds | 16B2 (antibody, IgG1, V domains shown, also called mAb 16B2) VH: QVQLVQSGAEVKKPGASVKVSCKASGYTFTSYGISWVRQAPGQGLEWMGWISAYNGNTNYAQKLQGRVTMTTDTSTSTAYMELRSLRSDDTAVYYCAREGAIYYDSSGYYFPFDYWGQGTLVTVSS VL: SYELTQPPSVSVSPGQTARITCSGDALPRKFAYWYQQKSGQAPVMVIYGDSKRPPGIPERFSGSSSGTMATLTITGAQVEDEADYYCYSTDSGGDVSVFGGGTKLTVL
